Here are results for six substances from patent US20240360203A1.

Where two headings read alike, the source gives them in different places.

Test in all cases: cell-based or functional assay
For assay [1], the target named is SARS-CoV-2 BA.2 Spike on pseudovirus (SARS-CoV-2) (UniProt P0DTC2).
In assay [2] the target is SARS-CoV-2 BA.4/5 Spike on pseudovirus (SARS-CoV-2) (UniProt P0DTC2).
The target in assay [3] is SARS-CoV-2 BA.2.12.1 Spike on pseudovirus (SARS-CoV-2) (UniProt P0DTC2).
Assay [4] has as its target SARS-CoV-2 Delta Spike on pseudovirus (SARS-CoV-2) (UniProt P0DTC2).
The target in assay [5] is SARS-CoV-2 BA.1 Spike on pseudovirus (SARS-CoV-2) (UniProt P0DTC2).
For assay [6], the target named is SARS-CoV-2 BA.2 Spike on pseudovirus (SARS-CoV-2) (UniProt P0DTC2). This is another data set of the same source.
The target of assay [7] is SARS-CoV-2 BA.4/5 Spike on pseudovirus (SARS-CoV-2) (UniProt P0DTC2). This is another data set of the same source.
For assay [8], the target named is SARS-CoV-2 BA.2.12.1 Spike on pseudovirus (SARS-CoV-2) (UniProt P0DTC2). This is another data set of the same source.
For assay [9], the target named is SARS-CoV-2 Delta Spike on pseudovirus (SARS-CoV-2) (UniProt P0DTC2). The source holds these as a separate data set.
Assay [10] concerns the target SARS-CoV-2 BA.1 Spike on pseudovirus (SARS-CoV-2) (UniProt P0DTC2). The source holds these as a separate data set.
In assay [11] the target is SARS-CoV-2 Delta (B.1.617.2) spike protein (SARS-CoV-2).
Assay [12] concerns the target SARS-CoV-2 BA.4/5 Spike on pseudovirus (SARS-CoV-2) (UniProt P0DTC2). This is another data set of the same source.
Assay [13] deals with SARS-CoV-2 Delta (B.1.617.2) spike protein (SARS-CoV-2). This is another data set of the same source.
The target in assay [14] is SARS-CoV-2 BA.2.75 spike protein (SARS-CoV-2).
The target of assay [15] is SARS-CoV-2 XBB.1 spike protein (SARS-CoV-2).
Assay [16] addresses SARS-CoV-2 BA.2.3.20 spike protein (SARS-CoV-2).
Assay [17] deals with SARS-CoV-2 BA.1 spike protein (SARS-CoV-2).
The target in assay [18] is SARS-CoV-2 BA.4.6 spike protein (SARS-CoV-2).
Assay [19] has as its target SARS-CoV-2 BQ.1 spike protein (SARS-CoV-2).
Assay [20] has as its target SARS-CoV-2 CH.1.1 spike protein (SARS-CoV-2).
The target in assay [21] is SARS-CoV-2 BN.1 spike protein (SARS-CoV-2).
In assay [22] the target is SARS-CoV-2 BF.7.14 spike protein (SARS-CoV-2).
Assay [23] has as its target SARS-CoV-2 BA.4/5 spike protein (SARS-CoV-2).
The target in assay [24] is SARS-CoV-2 BA.2.75.2 spike protein (SARS-CoV-2).
Assay [25] deals with SARS-CoV-2 XBB.1.5 spike protein (SARS-CoV-2).
In assay [26] the target is SARS-CoV-2 BQ.1.1 spike protein (SARS-CoV-2).
In assay [27] the target is SARS-CoV-2 BA.2 spike protein (SARS-CoV-2).
The target of assay [28] is SARS-CoV-2 Delta (B.1.617.2) spike protein (SARS-CoV-2). The source holds these as a separate data set.
The target in assay [29] is SARS-CoV-2 BA.1.1 spike protein (SARS-CoV-2).
Assay [30] concerns the target SARS-CoV-2 BF.7 spike protein (SARS-CoV-2).
Assay [31] addresses SARS-CoV-2 BA.2.12.1 spike protein (SARS-CoV-2).
The target in assay [32] is SARS-CoV-2 Delta (B.1.617.2) spike protein (SARS-CoV-2). The source holds these as a separate data set.
The target of assay [33] is SARS-CoV-2 XBB.1.5 spike protein (SARS-CoV-2). This is another data set of the same source.
Assay [34] has as its target SARS-CoV-2 BQ.1.1 spike protein (SARS-CoV-2). This is another data set of the same source.
The target of assay [35] is SARS-CoV-2 Delta (B.1.617.2) spike protein (SARS-CoV-2). This is another data set of the same source.

Regarding AZD1061 (antibody), the IC50, pseudovirus neutralization came to 5.8 ng/mL in assay [1]; 41.2 ng/mL in assay [2]; 5.1 ng/mL in assay [3]; 5.9 ng/mL in assay [4]; 1220 ng/mL in assay [5]. The % neutralization at 4.5 µg/ml, pseudovirus in assay [6] was found to be 99.7%; in assay [7] it was 96.7%; in assay [8], 99.8%; in [9], 100%; in assay [10], 83.9%.
Turning to Bebtelovimab (antibody), the pseudovirus neutralization EC80, Vero E6 (bebtelovimab + isotype) in [11] was 3.5 ng/mL; in assay [28] it was 4.2 ng/mL. In assay [12], the IC50, pseudovirus neutralization was 0.3 ng/mL. In addition, the figures for the pseudovirus neutralization EC50, Vero E6 (bebtelovimab + isotype) in assay [13] and in [28] were 0.44 ng/mL and 0.63 ng/mL, respectively. In addition, the pseudovirus neutralization EC50 in [14] was 0.65 ng/mL; in assay [16], 12 ng/mL; in [17] it was 0.17 ng/mL; in [18] it was 0.2 ng/mL; in [21] it was 0.467 ng/mL; in [22], 0.22 ng/mL. Besides, the pseudovirus neutralization EC50 in [23] turned out to be 0.073 ng/mL; in assay [24] it was 0.46 ng/mL; in assay [27], 0.2 ng/mL; in [28], 3.8 ng/mL; in assay [29], 0.12 ng/mL; in [30], 0.11 ng/mL. The substance also showed a pseudovirus neutralization EC50 in assay [31] of 0.2 ng/mL. Further, the pseudovirus neutralization EC80 in [14] was found to be 8.2 ng/mL; in assay [16] it was 360 ng/mL; in assay [17] it was 1.8 ng/mL; in assay [18], 2.5 ng/mL; in assay [21], 5.3 ng/mL; in [22] it was 1.4 ng/mL. Besides, the pseudovirus neutralization EC80 was 1.2 ng/mL in [23]; 6.3 ng/mL in [24]; 1.4 ng/mL in assay [27]; 23 ng/mL in assay [28]; 1.3 ng/mL in assay [29]; 1.7 ng/mL in [30]. Moreover, in [31], the pseudovirus neutralization EC80 is 1.2 ng/mL. Also, the pseudovirus neutralization EC90 was 36 ng/mL in [14]; 2600 ng/mL in [16]; 7.2 ng/mL in assay [17]; 11 ng/mL in assay [18]; 22 ng/mL in assay [21]; 4.1 ng/mL in assay [22]. The pseudovirus neutralization EC90 in assay [23] was determined as 6.4 ng/mL; in [24] it was 29 ng/mL; in [27], 4.4 ng/mL; in assay [28], 66 ng/mL; in assay [29] it was 5.6 ng/mL; in [30], 8.5 ng/mL. In addition, the pseudovirus neutralization EC90 in assay [31] was 3.6 ng/mL. The pseudovirus neutralization Emax (% neutralization) in assay [14] was 99.5; in assay [15], 10.8; in [16], 97.9; in assay [17], 99.8; in assay [18], 99.6; in assay [19], 72.2. Further, the pseudovirus neutralization Emax (% neutralization) in assay [20] was 5.32; in assay [21], 99.4; in assay [22] it was 99.8; in [23], 99.8; in assay [24] it was 99.5; in assay [25] it was 2.01. The pseudovirus neutralization Emax (% neutralization) in [26] was 53; in [27], 99.9; in assay [28], 99.9; in [29] it was 99.9; in assay [30] it was 99.8; in [31], 99.9. The pseudovirus neutralization Emax, TMPRSS2-Vero E6 (bebtelovimab + isotype) (% neutralization) in assay [25] came out at 2.93; in assay [26], 40.5; in assay [28], 99.7. Besides, the pseudovirus neutralization Emax, Vero E6 (bebtelovimab + isotype) (% neutralization) in assay [25] was determined as 4.21; in [26] it was 59.1; in assay [28], 99.7; in assay [33], 0.55; in assay [34] it was 55.6; in assay [35], 99.7. Moreover, the pseudovirus neutralization EC50, TMPRSS2-Vero E6 (bebtelovimab + isotype) in [28] came to 1.6 ng/mL. For the same substance, the pseudovirus neutralization EC80, TMPRSS2-Vero E6 (bebtelovimab + isotype) in assay [28] was 13 ng/mL. In addition, the pseudovirus neutralization EC90, TMPRSS2-Vero E6 (bebtelovimab + isotype) in assay [28] came to 43 ng/mL. In addition, the pseudovirus neutralization EC90, Vero E6 (bebtelovimab + isotype) in assay [28] was 13 ng/mL; in assay [32], 12 ng/mL.
Sotrovimab VH/VL-huIgG1 (antibody) displayed a pseudovirus neutralization EC50, Vero E6 in assay [27] of 862 ng/mL.
For the substance AZD8895 (antibody), the IC50, pseudovirus neutralization in assay [1] worked out at 608 ng/mL; in [3], 415 ng/mL; in assay [4] it was 0.5 ng/mL; in [5] it was 1160 ng/mL. The % neutralization at 4.5 µg/ml, pseudovirus was 93.9% in assay [6]; 25.8% in [7]; 94.2% in assay [8]; 102% in assay [9]; 96.5% in assay [10].
With “Sotrovimab VH/VL (human IgG1 molecule expressing the same variable regions of Sotrovimab) (antibody)”, the IC50, pseudovirus neutralization in [1] is 392 ng/mL; in [2] it was 666 ng/mL; in assay [3], 714 ng/mL; in [4], 12.3 ng/mL; in [5] it was 63.3 ng/mL; in [12], 424 ng/mL. In addition, the IC50, pseudovirus neutralization in assay [6] is 704 ng/mL; in assay [7] it was > 4500 ng/mL; in assay [8], 1200 ng/mL; in assay [9] it was 65 ng/mL. The % neutralization at 4.5 µg/ml, pseudovirus in assay [6] is 73.1%; in [7] it was 60.5%; in [8], 76.9%; in [9] it was 101%; in [10] it was 99.4%.
Substance Sotrovimab VH/VL-hamIgG2a (antibody) registered a pseudovirus neutralization EC50, Vero E6 in assay [27] of 361 ng/mL.
